This experiment deals with T1, recombinant Rpb4/Rpb7-6His (S. cerevisiae, UniProt P20433 1-221; P34087 1-171).
T1 sequence (looked up) 1: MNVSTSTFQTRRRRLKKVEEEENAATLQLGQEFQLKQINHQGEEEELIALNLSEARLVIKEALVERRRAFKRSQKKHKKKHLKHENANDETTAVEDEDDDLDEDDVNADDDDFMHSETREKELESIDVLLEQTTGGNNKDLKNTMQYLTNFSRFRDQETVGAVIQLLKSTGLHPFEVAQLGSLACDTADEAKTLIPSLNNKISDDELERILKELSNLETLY
T1 sequence (looked up) 2: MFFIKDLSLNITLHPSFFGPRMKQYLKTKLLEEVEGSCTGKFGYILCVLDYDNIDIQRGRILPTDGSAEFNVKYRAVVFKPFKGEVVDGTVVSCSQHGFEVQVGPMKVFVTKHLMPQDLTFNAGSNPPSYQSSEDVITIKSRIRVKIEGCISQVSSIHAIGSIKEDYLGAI
Put plainly: pull-down.

B1: recombinant Sub1 (natural protein, S. cerevisiae, UniProt P54000 1-292, looked up)
chain: MSYYNRYRNKRRSDNGGGNLSNSNNNNGGMPSGLSASDAIFDLGKNKRVTVRQFRNINLIDIREYYLDSSTGEMKPGKKGISLTEDLYDELLKHRLNIDEALRRLGSKRPKTKMVRLLSDDEYEDDNNNDSTNNDKDKNGKDKNSPKKRREDKSKASNESHDLEPRSKKKKPAPPTLLPHEENIQNAEREANATLIIPGQAGRKQQEERKQKEKEEAEEAKAKAVAEQEKEAKAKEKIAEPEPEPVPTLQAKKEDIVSNINESKDANSSDEEFAQSLEAEMNKAEDDISEEE
B1: the binding result is on record as “binds”.

The record behind these values is article PMC5389574 (Nucleic Acids Research, 2016).
